Test results: patent US7208581 (BURNHAM INSTITUTE FOR MEDICAL RESEARCH, dated 2007)

T1: hTRAF 2 (complete open reading frame, in vitro translated from pcDNA3-HA-TRAF2) (human, UniProt Q12933 2-501, 35S-methionine labelled)
T1 construct: mature; also called human TRAF 2; not shown: HA tag of the pcDNA3-HA vector
T1 sequence (looked up): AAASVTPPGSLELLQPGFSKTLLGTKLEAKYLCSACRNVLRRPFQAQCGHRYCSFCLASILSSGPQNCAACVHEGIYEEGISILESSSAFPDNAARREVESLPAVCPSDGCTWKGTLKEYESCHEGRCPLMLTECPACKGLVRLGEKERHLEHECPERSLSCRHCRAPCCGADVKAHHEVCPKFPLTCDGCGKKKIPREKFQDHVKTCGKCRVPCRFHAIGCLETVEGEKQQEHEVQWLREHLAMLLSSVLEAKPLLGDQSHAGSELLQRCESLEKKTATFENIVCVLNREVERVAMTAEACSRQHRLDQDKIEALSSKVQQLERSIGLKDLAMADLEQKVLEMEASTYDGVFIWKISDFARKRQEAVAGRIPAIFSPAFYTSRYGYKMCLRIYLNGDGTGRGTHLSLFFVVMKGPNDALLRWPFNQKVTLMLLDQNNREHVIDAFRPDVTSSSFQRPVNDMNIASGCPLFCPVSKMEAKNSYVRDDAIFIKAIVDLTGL

T2: hTRAF4 (complete open reading frame, in vitro translated from pcDNA3-HA-TRAF4) (human, UniProt Q9BUZ4 1-470, 35S-methionine labelled)
T2 construct: mature; also called human TRAF 4; not shown: HA tag of the pcDNA3-HA vector
T2 sequence (looked up): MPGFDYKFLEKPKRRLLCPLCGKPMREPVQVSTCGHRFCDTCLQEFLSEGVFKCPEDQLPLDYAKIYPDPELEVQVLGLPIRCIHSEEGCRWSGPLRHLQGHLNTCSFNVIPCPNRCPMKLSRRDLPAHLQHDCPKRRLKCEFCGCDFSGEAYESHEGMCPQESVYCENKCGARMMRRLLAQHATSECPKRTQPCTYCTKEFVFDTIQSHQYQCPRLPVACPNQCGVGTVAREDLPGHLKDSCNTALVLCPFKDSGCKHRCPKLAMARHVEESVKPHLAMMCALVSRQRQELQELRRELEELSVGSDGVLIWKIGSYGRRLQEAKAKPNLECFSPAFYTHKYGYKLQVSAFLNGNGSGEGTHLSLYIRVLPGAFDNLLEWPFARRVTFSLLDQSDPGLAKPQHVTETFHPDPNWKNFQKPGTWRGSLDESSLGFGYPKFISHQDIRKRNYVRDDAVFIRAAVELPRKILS

T3: full-length I-TRAF (in vitro translated) (UniProt Q92844 1-425, limits assumed, 35S-methionine labelled)
T3 construct: mature
T3 sequence (looked up): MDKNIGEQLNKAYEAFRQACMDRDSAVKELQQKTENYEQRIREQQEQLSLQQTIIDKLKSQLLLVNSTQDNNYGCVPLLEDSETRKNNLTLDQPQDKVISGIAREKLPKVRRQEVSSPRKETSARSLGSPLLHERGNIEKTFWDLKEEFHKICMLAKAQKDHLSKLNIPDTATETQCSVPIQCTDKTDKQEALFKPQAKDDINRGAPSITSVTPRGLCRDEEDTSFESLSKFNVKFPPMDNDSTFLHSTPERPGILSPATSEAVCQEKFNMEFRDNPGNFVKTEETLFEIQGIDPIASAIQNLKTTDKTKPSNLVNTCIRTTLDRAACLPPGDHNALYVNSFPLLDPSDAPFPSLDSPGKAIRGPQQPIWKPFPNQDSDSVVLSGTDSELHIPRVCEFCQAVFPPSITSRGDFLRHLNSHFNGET

B1: GST-CD40(ct) (receptor, UniProt P25942 216-277, looked up)
chain: KKVAKKPTNKAPHPKQEPQEINFPDDLPGSNTAAPVQETLHGCQPVTQEDGKESRISVQERQ
notes: domain: cytosolic domain; not shown: glutathione S-transferase tag of plasmid pGEX-CD40(ct)
B2: GST-SPOP (1-180) (other)
chain: MSRVPSPPPPAEMSSGPVAESWCYTQIKVVKFSYMWTINNFSFCREEMGEVIKSSTFSSGANDKLKWCLRVNPKGLDEESKDYLSLYLLLVSCPKSEVRAKFKFSILNAKGEETKAMESQRAYRFVQGKDWGFKKFIRRDFLLDEANGLLPDDKLTLFCEVSVVQDSVNISGQNTMNMVK
notes: Bacterial GST fusion purified on glutathione-Sepharose. cDNA amplified from Jurkat cells; also called GST-SPOP fusion protein; GST-fused TPBD of SPOP; not shown: glutathione S-transferase tag encoded by the pGEX4T vector (Pharmacia)
B3: SPOP (1-180), not GST-fused (pcDNA3-myc-SPOP (1-180)) (other)
chain: MSRVPSPPPPAEMSSGPVAESWCYTQIKVVKFSYMWTINNFSFCREEMGEVIKSSTFSSGANDKLKWCLRVNPKGLDEESKDYLSLYLLLVSCPKSEVRAKFKFSILNAKGEETKAMESQRAYRFVQGKDWGFKKFIRRDFLLDEANGLLPDDKLTLFCEVSVVQDSVNISGQNTMNMVK
notes: also called in vitro translated SPOP (1-180); TPBD of SPOP; not shown: myc tag of the pcDNA3-myc vector
B4: GST-fusion protein containing the cytosolic domain of HVEM (receptor, UniProt Q92956 224-283, looked up)
chain: CVKRRKPRGDVVKVIVSVQRKRQEAEGEATVIEALQAPPDVTTVAVEETIPSFTGRSPNH
notes: domain: cytosolic domain; Only named in the 293T lysate experiment; not shown: glutathione S-transferase tag
B5: TRAF7 (282-435), not GST-fused (pcDNA3-myc-TRAF7 (282-435)) (other)
chain: FTSELVPSYDSATFVLENFSTLRQRADPVYSPPLQVSGLCWRLKVYPDGNGVVRGYYLSVFLELSAGLPETSKYEYRVEMVHQSCNDPTKNIIREFASDFEVGECWGYNRFFRLDLLANEGYLNPQNDTVILRFQVRSPTFFQKSRDQHWYIT
notes: transfected in the reporter assay; also called in vitro translated TRAF7 (282-435); TRAF domain of TRAF7; not shown: myc tag of the pcDNA3-myc vector
B6: GST-DR4(ct) (receptor, UniProt O00220 263-468, looked up)
chain: CIGSGCGGDPKCMDRVCFWRLGLLRGPGAEDNAHNEILSNADSLSTFVSEQQMESQEPADLTGVTVQSPGEAQCLLGPAEAEGSQRRRLLVPANGADPTETLMLFFDKFANIVPFDSWDQLMRQLDLTKNEIDVVRAGTAGPGDALYAMLMKWVNKTGRNASIHTLLDALERMEERHAREKIQDLLVDSGKFIYLEDGTGSAVSLE
notes: domain: cytosolic domain; not shown: glutathione S-transferase tag of plasmid pGEX-DR4(ct)
B7: GST-Fas(ct) (receptor, UniProt P25445 191-335, looked up)
chain: KRKEVQKTCRKHRKENQGSHESPTLNPETVAINLSDVDLSKYITTIAGVMTLSQVKGFVRKNGVNEAKIDEIKNDNVQDTAEQKVQLLRNWHQLHGKKEAYDTLIKDLKKANLCTLAEKIQTIILKDITSDSENSNFRNEIQSLV
notes: domain: cytosolic domain; not shown: glutathione S-transferase tag of plasmid pGEX-Fas(ct)
B8: GST-LTβR(ct) (receptor, UniProt P36941 249-435, looked up)
chain: KSHPSLCRKLGSLLKRRPQGEGPNPVAGSWEPPKAHPYFPDLVQPLLPISGDVSPVSTGLPAAPVLEAGVPQQQSPLDLTREPQLEPGEQSQVAHGTNGIHVTGGSMTITGNIYIYNGPVLGGPPGPGDLPATPEPPYPIPEEGDPGPPGLSTPHQEDGKAWHLAETEHCGATPSNRGPRNQFITHD
notes: domain: cytosolic domain; also called lymphotoxin-β receptor; not shown: glutathione S-transferase tag of plasmid pGEX-LTβR(ct)
B9: GST-TNF-R2(ct) (receptor, UniProt P20333 288-461, looked up)
chain: KKKPLCLQREAKVPHLPADKARGTQGPEQQHLLITAPSSSSSSLESSASALDRRAPTRNQPQAPGVEASGAGEARASTGSSDSSPGGHGTQVNVTCIVNVCSSSDHSSQCSSQASSTMGDTDSSPSESPKDEQVPFSKEECAFRSQLETPETLLGSTEEKPLPLGVPDAGMKPS
notes: domain: cytosolic domain; Plasmid provided by Dr. C; Ware; also called TNF-receptor 2; not shown: glutathione S-transferase tag of plasmid pGEX-TNF-R2(ct)

Tests used:
GST-HAUSP (1-213) = biological target: T4, GST-HAUSP (1-213) (human, UniProt Q93009 1-213); test: GST pull-down, 35S in vitro translated protein, SDS-PAGE and fluorography
T4 construct: Bacterial GST fusion purified on glutathione-Sepharose. cDNA amplified from Jurkat cells; also called GST-fused TPBD of HAUSP; HAUSP TPBD; not shown: glutathione S-transferase tag encoded by the pGEX4T vector (Pharmacia)

GST-SPOP (1-180) = biological target: B2; test: as above
GST-DR4(ct) = biological target: B6; test: as above
[1] = biological target: T1, hTRAF 2 (complete open reading frame, …); test: as above
[2] = biological target: T2, hTRAF4 (complete open reading frame, in …); test: as above
[3] = biological target: T5, hTRAF5 (complete open reading frame, in vitro translated from pcDNA3-Flag-TRAF5) (human, UniProt O00463 1-557, 35S-methionine labelled); test: as above
T5 construct: mature; also called human TRAF 5; not shown: Flag tag of the pcDNA3-Flag vector

[4] = biological target: T3, full-length I-TRAF (in vitro translated); test: as above
[5] = biological target: B3; test: as above
GST-LTβR(ct) = biological target: B8; test: as above
[6] = biological target: B5; test: GST pull-down from 293T cell lysate, anti-Myc immunoblot
Procedure: Bound TRAF proteins were detected by SDS-PAGE and fluorography.
Equal volumes of the in vitro translation mixtures (10 μl) were incubated with GST-fusion proteins containing the cytosolic domains of different members of the TNF-R family (1 μg)(FAS, TNF-R2, CD40, LTβR, NGFRp75, and DR4) immobilized on glutathione-Sepharose. […] Control GST and other GST control proteins were included in all assays After washing, bound proteins were analyzed by SDS-PAGE followed by fluorography for binding assays using in vitro translated proteins. […] Bound proteins were then detected by standard chemiluminescence assay (ECL; Amersham; Piscataway N.J.).

T4 sequence (Q93009 1-213): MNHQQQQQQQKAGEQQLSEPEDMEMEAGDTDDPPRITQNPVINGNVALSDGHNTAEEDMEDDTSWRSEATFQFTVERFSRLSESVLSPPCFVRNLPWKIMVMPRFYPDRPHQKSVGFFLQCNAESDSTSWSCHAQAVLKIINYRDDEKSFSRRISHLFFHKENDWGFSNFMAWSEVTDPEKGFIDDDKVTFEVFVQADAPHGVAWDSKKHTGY
T5 sequence (O00463 whole entry): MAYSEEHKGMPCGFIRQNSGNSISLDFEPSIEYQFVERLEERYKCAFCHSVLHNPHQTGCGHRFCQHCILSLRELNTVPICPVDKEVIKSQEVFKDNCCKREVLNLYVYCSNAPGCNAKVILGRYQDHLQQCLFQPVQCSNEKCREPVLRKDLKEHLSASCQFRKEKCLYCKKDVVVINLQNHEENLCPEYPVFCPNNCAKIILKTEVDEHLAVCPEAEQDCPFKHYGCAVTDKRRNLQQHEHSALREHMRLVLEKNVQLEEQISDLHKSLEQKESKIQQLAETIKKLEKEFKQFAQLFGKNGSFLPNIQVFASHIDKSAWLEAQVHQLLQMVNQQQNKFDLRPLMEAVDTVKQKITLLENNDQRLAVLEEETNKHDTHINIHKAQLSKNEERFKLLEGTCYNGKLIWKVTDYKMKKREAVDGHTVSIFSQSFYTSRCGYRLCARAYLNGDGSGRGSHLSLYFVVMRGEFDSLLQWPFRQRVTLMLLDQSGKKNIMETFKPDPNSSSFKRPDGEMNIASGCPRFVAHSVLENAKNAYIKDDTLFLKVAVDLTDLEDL

| Binder | binding result (GST-HAUSP (1-213)) | binding result (GST-SPOP (1-180)) | further results |
| --- | --- | --- | --- |
| B1 | no binding | no binding | – |
| B2 | – | – | binding result (GST-DR4(ct)): no binding; binding result [1]: no binding; binding result [2]: no binding; binding result [3]: no binding; binding result [4]: no binding; binding result [5]: no binding; binding result (GST-LTβR(ct)): no binding |
| B3 | no binding | – | – |
| B4 | – | – | binding result [6]: no binding |
| B5 | no binding | no binding | – |
| B6 | no binding | – | – |
| B7 | no binding | no binding | – |
| B8 | no binding | – | – |
| B9 | no binding | – | – |
